Reference: patent WO2014084859A1
Blank lines part the entries; values can stand above or below the molecule they belong to.

Experiments:
[1] = molecular target: TMEM16A-GFP fusion protein on HEK293 stable cells (UniProt Q5XXA6); assay: flow cytometry on HEK293-TMEM16A cells
SP31 ab64085 = assay: peptide blocking of SP31 ab64085, western blot of TMEM16A
[2] = molecular target: T1, peptide 44 (linear 15-mer of the ECD1-3 library) (human); assay: peptide microarray (RepliTope), linear 15-mer
T1 sequence (peptide): VQISRYKDYREPPWS

[3] = molecular target: T2, peptide 45 (linear 15-mer of the ECD1-3 library) (human); assay: peptide microarray (RepliTope), linear 15-mer
T2 sequence (peptide): SRYKDYREPPWSENK

[4] = molecular target: T3, peptide 46 (linear 15-mer of the ECD1-3 library) (human); assay: peptide microarray (RepliTope), linear 15-mer
T3 sequence (peptide): KDYREPPWSENKYDI

[5] = molecular target: peptide 44 (cyclic, flanked by cysteines, second library) (human); assay: peptide microarray (RepliTope), cyclic peptide
[6] = molecular target: peptide 45 (cyclic, flanked by cysteines, second library) (human); assay: peptide microarray (RepliTope), cyclic peptide
[7] = molecular target: peptide 46 (cyclic, flanked by cysteines, second library) (human); assay: peptide microarray (RepliTope), cyclic peptide

Sequence of UniProt Q5XXA6 (Q5XXA6 whole entry, the tested form may be a part): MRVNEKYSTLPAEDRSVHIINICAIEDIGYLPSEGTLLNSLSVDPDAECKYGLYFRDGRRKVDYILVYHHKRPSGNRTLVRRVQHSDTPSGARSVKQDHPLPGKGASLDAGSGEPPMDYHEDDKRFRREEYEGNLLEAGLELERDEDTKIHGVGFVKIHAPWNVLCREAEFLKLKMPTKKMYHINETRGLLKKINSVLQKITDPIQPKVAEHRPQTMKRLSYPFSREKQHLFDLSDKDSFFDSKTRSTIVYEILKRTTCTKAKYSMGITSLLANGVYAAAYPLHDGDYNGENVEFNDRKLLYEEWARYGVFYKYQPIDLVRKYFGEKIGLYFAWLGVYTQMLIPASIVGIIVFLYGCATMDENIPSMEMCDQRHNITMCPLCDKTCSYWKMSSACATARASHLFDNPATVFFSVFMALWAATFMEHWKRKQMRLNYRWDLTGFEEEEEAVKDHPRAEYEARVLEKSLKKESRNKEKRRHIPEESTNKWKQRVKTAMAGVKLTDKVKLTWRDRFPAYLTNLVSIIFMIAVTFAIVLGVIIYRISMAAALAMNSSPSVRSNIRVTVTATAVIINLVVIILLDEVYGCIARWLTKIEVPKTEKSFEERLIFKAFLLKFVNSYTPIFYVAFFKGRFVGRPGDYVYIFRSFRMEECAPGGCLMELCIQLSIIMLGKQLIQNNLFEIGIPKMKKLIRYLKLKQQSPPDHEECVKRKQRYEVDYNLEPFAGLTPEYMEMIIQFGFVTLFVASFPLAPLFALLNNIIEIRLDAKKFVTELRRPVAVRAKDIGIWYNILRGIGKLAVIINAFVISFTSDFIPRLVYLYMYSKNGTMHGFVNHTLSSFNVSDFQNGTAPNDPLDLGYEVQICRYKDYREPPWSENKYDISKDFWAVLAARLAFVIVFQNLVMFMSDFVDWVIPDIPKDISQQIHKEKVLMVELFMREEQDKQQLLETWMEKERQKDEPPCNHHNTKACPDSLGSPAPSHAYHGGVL

- median fluorescence intensity [1]: 93
Molecule: isotype control antibody (flow cytometry with 12E11)

- peptide concentration at which pre-incubation blocked the western blot signal (SP31 ab64085): 0.01 µg/mL
Molecule: DHEECVKRKQRYEVDYNLE [Peptide #2]

- signal over background signal (after subtraction of the signals of the unrelated antibody) [2]: 3 times
- signal over background signal (after subtraction of the signals of the unrelated antibody) [3]: > 3 times
- signal (AU, arbitrary unit) [4]: 15000 AU
- signal over background signal (after subtraction of the signals of the unrelated antibody) [4]: > 3 times
- signal over background signal (after subtraction of the signals of the unrelated antibody) [5]: > 3 times
- signal over background signal (after subtraction of the signals of the unrelated antibody) [6]: > 3 times
- signal (AU, arbitrary unit) [7]: 15000 AU
- signal over background signal (after subtraction of the signals of the unrelated antibody) [7]: > 3 times
B1: 12E11 (antibody, V domains shown)
VH: QVQLKESGPGLVQPSQTLTLTCTVSGFSLSNYDMHWVRQSPGKGLDWMGVIWGNGKTQYNSGLTSRLSISRDTSKSQVFLKMNSLQTEDTAIYFCTRSGYYYDGSYYSLFDYWGQGVMVTVSS
VL: DVVLTQTPPTLSATIGQSVSISCRSSQSLLHSNGNTYLNWLLQRPGQPPQLLIYLVSRLESGVPNRFSGSGSGTDFTLKISGVEAEDLGVYYCVQSTHAPAFGGGTKLELK
